Results as given in patent US12383572B2, “Administration of an anti-activin-a compound to a subject” (AMGEN INC., priority 2013, dated 2025).

Columns and labels:
E-cadherin = E-cadherin Western blot and immunostaining in inh-KO ovarian tumors; format: in vivo, mouse; settings: inh-KO mice
Description: Protein extracts were prepared from cell cultures or tissues in T-PER tissue protein extraction reagent (Pierce) containing a mixture of protease inhibitors (Roche). A pool of 50 μg total protein for each group containing equal amounts of protein extract isolated from individual animals was separated by NuPAGE 4-12% Bis-Tris gel (Invitrogen) and transferred to PVDF. The membranes were probed with primary antibodies against total Smad2, p-Smad2 or E-cadherin (1:1000; Cell Signaling), endoglin, osteopontin (1:500; R & D Systems), IGFBP-1, IGFBP-2 (1:500; Abcam) followed by HRP-conjugated secondary antibody (1:2000; Cell Signaling). The membranes were stripped and re-probed with antibody against α-tubulin (1:1000; Cell Signaling).
Zinc-formalin fixed paraffin tumor tissue sections of 4 μm in thickness were prepared. The sections were subjected to antigen retrieval by microwave 3 min in Unmask solution (Vector H-3300) followed by incubation in 10 μg/ml Proteinase-K for 20 min and in 1% H2O2 in dH2O for 10 min at room temperature. The sections were further incubated in 0.1% Tween-20 in PBS for 3 min to permeabilize the cell membrane and in goat serum for 30 min to block non-specific binding. […] The immunostained tissue sections were analyzed and photographed using a Nikon Eclipse 90i microscope equipped with DS-Ril camera. […]

[1] = system: TOV-21G ovarian cancer xenografts; test: TOV-21G xenograft growth in nude mice, activin-A antagonists alone; format: in vivo, human; settings: sActRIIB 30 mg/kg SC 1x/week, activin-A antibody 30 mg/kg SC 2x/week, from day 12, vs PBS
Description: TOV-21G xenograft. 5×10^6 TOV-21G ovarian cancer cells were implanted subcutaneously into individual female athymic nu/nu mice (Harlan). Treatment was initiated at day 12 after tumor implantation, when the average tumor volume reached approximately 150 mm^3. The mice received PBS, sActRIIB (30 mg/kg, SC, 1×/week) or activin-A antibody (30 mg/kg, SC, 2×/week). In a separate chemotherapy combination experiment, the mice were treated with PBS, sActRIIB (10 mg/kg, SC, 1×/week), 5-FU (50 mg/kg, IP, 3 cycles, 4 daily injections per cycle) or sActRIIB and 5-FU combination at the same doses above. For all xenograft experiments, the tumor sizes were measured longitudinally by using an electronic caliper. Immediately prior to the 1st dose, the tumor-bearing mice were randomized to ensure even distribution in tumor sizes across different groups. Tumor volumes (mm^3) were calculated as tumor length (mm)×tumor width (mm)×tumor height (mm). Tumor weights were determined by necropsy.

[2] = system: TOV-21G ovarian xenograft tumors; test: sActRIIB and doxorubicin in TOV-21G tumor-bearing nude mice: tumor size and weight; format: in vivo, human; settings: sActRIIB 10 mg/kg SC 1x/week, DOX 2 mg/kg IP 1x/week; 4-week study
Description: The objective of the present study was to examine the effect of pharmacological administration of sActRIIB, doxorubicin (dox), and sActRIIB plus doxorubicin, respectively, on body weight, tumor growth and muscle mass in nude mice implanted with TOV-21G ovarian xenograft tumors. Eight-week-old female Athymic nude mice were SC injected with 0.2 mL of 5×10^6 TOV-21G cells into the left site of the lower flank of the mice. After 10 days of tumor implantation, the mice were divided into 4 groups by body weight and tumor size and then treated with vehicle, sActRIIB, doxorubicin or the combination of sActRIIB and doxorubicin. In addition, a group of non-tumor bearing mice was used as normal control and received PBS.
Mice were weighed weekly. Body weight data were recorded longitudinally. Tumor size was measured longitudinally by using an electronic caliper. The following formula was used to calculate actual tumor volume (Tomayko M and Reynolds C, 1989): (Volume of a rectangular solid tumor: Tumor volume (mm^3)=length (mm)×width (mm)×height (mm) of tumor). At the end of the study, mice in all groups were subjected to terminal necropsy and lean carcass weight (excluding skin, adipose tissue, internal organs, and head) was determined by using standard anatomical dissection procedures. […] All results were expressed as the mean±SEM (standard error of the mean). […]

VEGF = test: Serum VEGF immunoassay in inh-KO mice; format: in vivo, mouse; settings: inh-KO mice with advanced tumors, single dose
Description: The serum VEGF levels in inh-KO mice were measured by using immunoassay kit (R & D Systems), and the levels of human VEGF and Ang-1 in cell line culture medium were quantified using ELISA kits purchased from Invitrogen (VEGF) and R & D Systems (Ang-1), by following the manufacturers' recommended protocols.

[3] = system: testicular tumors in inh-KO mice; test: Testicular tumor mass by necropsy in male inh-KO mice; format: in vivo, mouse; settings: 8-week-old male inh-KO mice, single injection 30 mg/kg SC, necropsy 14 days after
Description: Inh-KO mice. 12-week-old female and 8-week-old male inh-KO mice with fully established ovarian or testicular tumors received a single injection of PBS or sActRIIB (30 mg/kg, SC). As a control, age-matched wild-type littermates received a single injection of PBS. Ovarian and testicular organ weights were determined by necropsy 14 days after the injection.

B1: sActRIIB: extracellular domain of human activin type-2B receptor fused to IgG2 Fc; full length SEQ ID NO: 21 (Table 9) (protein, listed as Homo sapiens)
chain: ETRWCIYYNANWELERTNQSGLERCEGEQDKRLHCYASWRNSSGTIELVKKGCWLDDFNCYDRQECVATEENPQVYFCCCEGNFCNERFTHLPEAGGPEVTYEPPPTAPTGGGGSVECPPCPAPPVAGPSVFLFPPKPKDTLMISRTPEVTCVVVDVSHEDPEVQFNWYVDGVEVHNAKTKPREEQFNSTFRVVSVLTVVHQDWLNGKEYKCKVSNKGLPAPIEKTISKTKGQPREPQVYTLPPSREEMTKNQVSLTCLVKGFYPSDIAVEWESNGQPENNYKTTPPMLDSDGSFFLYSKLTVDKSRWQQGNVFSCSVMHEALHNHYTQKSLSLSPGK
E-cadherin immunoreactivity in ovarian sections (E-cadherin): reappearance of distinctive E-cadherin immunoreactivity | E-cadherin protein in ovarian tumors (Western blot) (E-cadherin; single injection): dramatically restored the lost E-cadherin | growth of TOV-21G xenografts (tumor volume) [1]: significantly inhibited the growth | tumor size and tumor weight vs vehicle-treated TOV-21G group [2]: capable of inhibiting TOV-21G tumor growth | serum VEGF (VEGF): rapidly lowered the elevated VEGF to WT control levels | testicular tumor mass [3]: dramatic regression of testicular tumor masses to the WT control levels
